Experimental data taken from the Human Domainome abundance scans (Beltran et al. 2025).
± gives the uncertainty stated by the source.

B1: Cytoplasmic polyadenylation element-binding protein 2, residues 513 to 575; numbered along this chain, Q7Z5Q1 (parent)
chain: KRVEVKPYVLDDQMCDECQGARCGGKFAPFFCANVTCLQYYCEFCWANIHSRAGREFHKPLVK

Variants of: B1
Assay: abundance fitness (aPCA) (normalised: wild type 0, dead -1); higher = more abundant; growth selection in yeast, the domain comes from the species named
Settings: Homo sapiens

Variant | abundance fitness
KRVEVKPYVLDDQMCDECQGARCGGKFAPFDCANVTCLQYYCEFCWANIHSRAGREFHKPLVK [F31D] | -0.962 ± 0.23
KRVEVKPYVLDDQMCDECQGARCGKKFAPFFCANVTCLQYYCEFCWANIHSRAGREFHKPLVK [G25K] | 0.016 ± 0.033
KRVEVKPYVLDDQMCDECQGARCGGKFAPFFCANVTCLQYYCEFCWANIHSRAGREFHKPLVT [K63T] | -0.079 ± 0.085
KRVEVKPYVLDDQMCDECQGARCGGKFAPFFCANVTCLQYYCEFCWANIHSRAGREFHKPLVD [K63D] | -0.641 ± 0.21
KRVEVKPYVLDDQMCDECQGARCGGKFAPFFCANVTCLQYYCEFCWANIHSRAGRHFHKPLVK [E56H] | -0.158 ± 0.068
KRVEVKPYVLDDQMCDECQGARCGGKFAPFFCANVTCLQYYCEFCWANIHSRAGRAFHKPLVK [E56A] | -0.357 ± 0.061
KRVEVKPYVLDDQMCDECQGARCGGKFAPFFCANVTCLQYYCEFCWANIHSRAGREYHKPLVK [F57Y] | -0.032 ± 0.077
KRHEVKPYVLDDQMCDECQGARCGGKFAPFFCANVTCLQYYCEFCWANIHSRAGREFHKPLVK [V3H] | -0.039 ± 0.079
KRREVKPYVLDDQMCDECQGARCGGKFAPFFCANVTCLQYYCEFCWANIHSRAGREFHKPLVK [V3R] | -0.1 ± 0.04
KRVEVKPYVLDDQMCDECQGARCGGKFAPSFCANVTCLQYYCEFCWANIHSRAGREFHKPLVK [F30S] | -0.195 ± 0.049
KRVEVKPYVLDDQMCDECQGARCGGKFAPLFCANVTCLQYYCEFCWANIHSRAGREFHKPLVK [F30L] | -0.036 ± 0.044
KRVEVKPYVLDDQMCDECQGARCGGKFIPFFCANVTCLQYYCEFCWANIHSRAGREFHKPLVK [A28I] | -0.337 ± 0.065
KRVEVKPYVLDDQMCDECQGARCGGKFTPFFCANVTCLQYYCEFCWANIHSRAGREFHKPLVK [A28T] | -0.364 ± 0.061
KRVEVKPYVLDDQMCDECQGARCGGKFHPFFCANVTCLQYYCEFCWANIHSRAGREFHKPLVK [A28H] | -0.495 ± 0.097
KRVEVKPYVLDDQMCDECQGARCGGKFEPFFCANVTCLQYYCEFCWANIHSRAGREFHKPLVK [A28E] | -0.289 ± 0.053
KRVEVKPYVLDDQACDECQGARCGGKFAPFFCANVTCLQYYCEFCWANIHSRAGREFHKPLVK [M14A] | -0.098 ± 0.057
KRVEVKPYKLDDQMCDECQGARCGGKFAPFFCANVTCLQYYCEFCWANIHSRAGREFHKPLVK [V9K] | -0.003 ± 0.055
KRVEVKPYALDDQMCDECQGARCGGKFAPFFCANVTCLQYYCEFCWANIHSRAGREFHKPLVK [V9A] | -0.02 ± 0.043
KRVEVKPYRLDDQMCDECQGARCGGKFAPFFCANVTCLQYYCEFCWANIHSRAGREFHKPLVK [V9R] | -0.14 ± 0.04
KRVEVKPYHLDDQMCDECQGARCGGKFAPFFCANVTCLQYYCEFCWANIHSRAGREFHKPLVK [V9H] | 0.051 ± 0.099
KRVEVKPYVLDDQMCDECQGARCGGKFAPFFCANVTCLQYYCEFCWANIHWRAGREFHKPLVK [S51W] | -0.267 ± 0.054
KRVEVKPYVLDDQMCDECQGARCGGKFAPFFCANVTCLQYYCEFCWANISSRAGREFHKPLVK [H50S] | -0.723 ± 0.051

Variant | abundance fitness
KRVEVKPYVLDDQMCDECQGARCGGKFAPFFCANVTCLQYYCEFCWANIQSRAGREFHKPLVK [H50Q] | -0.727 ± 0.094
KRVEVKPYVLDDQMCDECQGARCGGKFAPFFCANVTCLQYYCEFCWANILSRAGREFHKPLVK [H50L] | -0.965 ± 0.069
KRVEVKPYVLDDQMCDECQGARCGGKFAPFFCANVTCLQVYCEFCWANIHSRAGREFHKPLVK [Y40V] | -0.399 ± 0.047
KRVEVKPYVLDDQMCDECQGARVGGKFAPFFCANVTCLQYYCEFCWANIHSRAGREFHKPLVK [C23V] | -0.328 ± 0.06
KRVEVKPYVFDDQMCDECQGARCGGKFAPFFCANVTCLQYYCEFCWANIHSRAGREFHKPLVK [L10F] | 0.009 ± 0.073
KRVEVKPYVLDDEMCDECQGARCGGKFAPFFCANVTCLQYYCEFCWANIHSRAGREFHKPLVK [Q13E] | -0.358 ± 0.062
KRVEVKPYVLDDQMCDECQGCRCGGKFAPFFCANVTCLQYYCEFCWANIHSRAGREFHKPLVK [A21C] | -0.447 ± 0.058
KRVEVKPYVLDDQMCDECQGNRCGGKFAPFFCANVTCLQYYCEFCWANIHSRAGREFHKPLVK [A21N] | -0.037 ± 0.08
KRVEVKPYVLDDQMCDECQGTRCGGKFAPFFCANVTCLQYYCEFCWANIHSRAGREFHKPLVK [A21T] | -0.117 ± 0.053
KRVEVKPYVLDDQMCDECQGARCGGKHAPFFCANVTCLQYYCEFCWANIHSRAGREFHKPLVK [F27H] | -0.08 ± 0.11
KRVEVKPYVLDDQMCDECQGARCGGKLAPFFCANVTCLQYYCEFCWANIHSRAGREFHKPLVK [F27L] | -0.015 ± 0.038
KRVEVKPYVLDDQMCDEFQGARCGGKFAPFFCANVTCLQYYCEFCWANIHSRAGREFHKPLVK [C18F] | -0.954 ± 0.15
KRVEVKPYVLDDQMCDECQGARCGGKFAPFFCANVTCLQYYCEFCGANIHSRAGREFHKPLVK [W46G] | -0.567 ± 0.082
KRVHVKPYVLDDQMCDECQGARCGGKFAPFFCANVTCLQYYCEFCWANIHSRAGREFHKPLVK [E4H] | -0.363 ± 0.1
KRVEVKPYVLDDQMCDECQGARCGGKFAPFFCANVWCLQYYCEFCWANIHSRAGREFHKPLVK [T36W] | -0.328 ± 0.055
KRVEVKPEVLDDQMCDECQGARCGGKFAPFFCANVTCLQYYCEFCWANIHSRAGREFHKPLVK [Y8E] | 0.18 ± 0.053
KRVEVKPYVLDDQMCDECQGARCGGKFAPFFCQNVTCLQYYCEFCWANIHSRAGREFHKPLVK [A33Q] | 0.099 ± 0.053
KRVEVKPYVLRDQMCDECQGARCGGKFAPFFCANVTCLQYYCEFCWANIHSRAGREFHKPLVK [D11R] | -0.068 ± 0.05
KRVEVKPYVLGDQMCDECQGARCGGKFAPFFCANVTCLQYYCEFCWANIHSRAGREFHKPLVK [D11G] | -0.041 ± 0.043
KRVEVKPYVLDDQMCDECQGARCGGKFAPFFCANVTCLQYYCEFEWANIHSRAGREFHKPLVK [C45E] | -1.16 ± 0.14
KRVEVKPYVLDDQMCDECQGARCGGYFAPFFCANVTCLQYYCEFCWANIHSRAGREFHKPLVK [K26Y] | -0.404 ± 0.084
